Assay results reported in article PMC5709735, “Real‐time detection of condensin‐driven DNA compaction reveals a multistep binding mechanism” (The EMBO Journal, 2017).

Tested on: T1, Nc1ncnc2c1ncn2[C@@H]1O[C@H](COP(=O)(O)OP(=O)(O)OP(=O)(O)O)[C@@H](O)[C@H]1O
T1 construct: pentameric holocomplex overexpressed in budding yeast from galactose-inducible promoters; His12 tag on Brn1, triple StrepII tag on Smc4; gel-filtered monomeric complexes; with Condensin complex subunit 2; Condensin complex subunit 1; Condensin complex subunit 3
Test: single-molecule magnetic tweezers, DNA compaction rate vs ATP, Michaelis-Menten fit
Format: biochemical, Saccharomyces cerevisiae
Conditions: 8.6 nM condensin, tethered 20-kb DNA under constant force, 10 mM HEPES-NaOH pH 7.9, 125 mM NaCl, 5 mM MgCl2, 1 mM DTT, error is 95% confidence interval, read-out is compaction rate, not ATP turnover

Substance “S. cerevisiae condensin holocomplex (Smc2–Smc4–Brn1–Ycs4–Ycg1) (Saccharomyces cerevisiae S288C)” has a Km of 1400 ± 1500 µM.
